Literature values, collected in publication PMC2712931.

Target: Pex5 (UniProt P50542)

Substance: Pex14 (from UniProt O75381)
- Kd: 2.75 µM
